Data: patent US20210380703A1 (RIGEL PHARMACEUTICALS, published 2021)

Tests used:
Goat anti-Human Kappa = target: T1, Goat anti-Human Kappa; assay: ELISA, positive control
T1 construct: Positive control of the ELISA; also called biotinylated goat anti-human kappa light chain
Summary of the method: (§1)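 mAb binding by ELISA; antigens: hu ACVR2A, mu ACVR2A; pos ctrl biotinylated goat anti-hu kappa LC; neg ctrl hu Fc.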

Mouse ACVR2A = Mouse ACVR2A (mouse, UniProt P27038 20-135, limits assumed); assay: ELISA
Chain of Mouse ACVR2A (P27038 20-135 limits assumed): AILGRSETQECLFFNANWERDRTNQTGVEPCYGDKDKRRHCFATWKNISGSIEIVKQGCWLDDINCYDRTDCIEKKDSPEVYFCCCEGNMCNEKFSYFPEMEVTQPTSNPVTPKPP
Summary of the method: as §1

Human ACVR2A = target: T2, Human ACVR2A (human, UniProt P27037 20-135, limits assumed); assay: ELISA
T2 construct: also called activin receptor, type II A
T2 sequence (P27037 20-135 limits assumed): as the sequence (P27038 20-135 limits assumed) above, with R20K, I73V counted along it
Summary of the method: as §1
Note: test concentration or dose not given here.

Row | optical density (Goat anti-Human Kappa) [OD] | optical density (Mouse ACVR2A) [OD] | optical density (Human ACVR2A) [OD] | Binder
1 | 3.13 | 2.06 | 1.91 | 368_B07 (antibody, V domains shown) VH: EVQLLESGGGLVQPGGSLRLSCAASGFTFSDYSMNWVRQAPGKGLEWVSNINYNGGYKSYADSVKGRFTISRDNSKNTLYLQMNSLRAEDTAVYYCARSANWHDTALDYWGQGTLVTVSS VL: DIQMTQSPSSLSASVGDRVTITCRASQSIVSYLNWYQQKPGKAPKLLIYAATSLASGVPSRFSGSGSGTDFTLTISSLQPEDFATYYCQQSYSSPLTFGGGTKVEIK
2 | 3.36 | 2.02 | 1.82 | 368_C05 (antibody, V domains shown) VH: EVQLLESGGGLVQPGGSLRLSCAASGFTFDSYGMNWVRQAPGKGLEWVSGINYNSGYTSYADSVKGRFTISRDNSKNTLYLQMNSLRAEDTAVYYCARSANWHDTALDYWGQGTLVTVSS VL: DIQMTQSPSSLSASVGDRVTITCRASQSILSYLNWYQQKPGKAPKLVIYAATSRASGVPSRFSGSGSGTDFTLTISSLQPEDFATYYCQQSDSNPLTFGGGTKVEIK
3 | 3.49 | 2.96 | 2.8 | 368_D11 (antibody, V domains shown) VH: EVQLLESGGGLVQPGGSLRLSCAASGFTFDDYGMNWVRQAPGKGLEWVSNINYNGGYKSYADSVKGRFTISRDNSKNTLYLQMNSLRAEDTAVYYCARSANWHDTALDYWGQGTLVTVSS VL: DIQMTQSPSSLSASVGDRVTITCRASQSILTYLNWYQQKPGKAPKLVIYAATSRASGVPSRFSGSGSGTDFTLTISSLQPEDFATYYCQQSYDLPLTFGGGTKVEIK
4 | 3.65 | 2.97 | 2.75 | 368_D01 (antibody, V domains shown) VH: EVQLLESGGGLVQPGGSLRLSCAASGFTFSSYGMHWVRQAPGKGLEWVANINYNGGYTSYADSVKGRFTISRDNSKNTLYLQMNSLRAEDTAVYYCARSANWHDTALDYWGQGTLVTVSS VL: DIQMTQSPSSLSASVGDRVTITCRASQSILSYLNWYQQKPGKAPKLVIYAATSRASGVPSRFSGSGSGTDFTLTISSLQPEDFATYYCQQSDSTPLTFGGGTKVEIK
5 | 3.67 | 2.7 | 2.46 | 368_D04 (antibody, V domains shown) VH: EVQLLESGGGLVQPGGSLRLSCAASGFTFSSYGMNWVRQAPGKGLEWVSGINYNGGYKSYADSVKGRFTISRDNSKNTLYLQMNSLRAEDTAVYYCARSANWHDTALDYWGQGTLVTVSS VL: DIQMTQSPSSLSASVGDRVTITCRASQSISTYVNWYQQKPGKAPKLVIYAVTSRHSGVPSRFSGSGSGTDFTLTISSLQPEDFATYYCQQSYDSPLTFGGGTKVEIK
6 | 3.38 | 2.87 | 2.86 | 368_D05 (antibody, V domains shown) VH: EVQLLESGGGLVQPGGSLRLSCAASGFTFSSYSMNWVRQAPGKGLEWVSGINYNGGYTSYADSVKGRFTISRDNSKNTLYLQMNSLRAEDTAVYYCARSANWHDTALDYWGQGTLVTVSS VL: DIQMTQSPSSLSASVGDRVTITCRASQSILTYLNWYQQKPGKAPKLVIYAATSRASGVPSRFSGSGSGTDFTLTISSLQPEDFATYYCQQSDDSPLTFGGGTKVEIK
7 | 3.74 | 2.85 | 2.57 | 368_E01 (antibody, V domains shown) VH: EVQLLESGGGLVQPGGSLRLSCAASGFTFSSYSMNWVRQAPGKGLEWVASINYNSGYTGYADSVKGRFTISRDNSKNTLYLQMNSLRAEDTAVYYCARSANWHDTHLDYWGQGTLVTVSS VL: DIQMTQSPSSLSASVGDRVTITCRASQSILSYLNWYQQKPGKAPKLLIYAVTSRHSGVPSRFSGSGSGTDFTLTISSLQPEDFATYYCQQSYSLPLTFGGGTKVEIK
